The text below walks through data of patent publication US20230183713A1, “SITE-SPECIFIC RECOMBINASES FOR EFFICIENT AND SPECIFIC GENOME EDITING” (TECHNISCHE UNIVERSITÄt DRESDEN, published 2023).

Data set [1] concerns the target T1, Cre recombinase monomer with Y324T mutation.
T1 chain: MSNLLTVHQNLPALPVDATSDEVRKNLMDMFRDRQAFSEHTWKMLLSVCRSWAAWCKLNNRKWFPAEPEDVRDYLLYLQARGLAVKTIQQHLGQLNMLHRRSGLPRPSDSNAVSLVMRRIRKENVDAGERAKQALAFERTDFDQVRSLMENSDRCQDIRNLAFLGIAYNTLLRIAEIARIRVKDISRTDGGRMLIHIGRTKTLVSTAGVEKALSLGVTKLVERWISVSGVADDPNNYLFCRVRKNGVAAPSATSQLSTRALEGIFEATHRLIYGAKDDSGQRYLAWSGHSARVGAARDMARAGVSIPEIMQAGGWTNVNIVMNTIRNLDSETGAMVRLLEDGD

The target of data set [2] is T2, Cre recombinase monomer with Q311R mutation.
T2 chain: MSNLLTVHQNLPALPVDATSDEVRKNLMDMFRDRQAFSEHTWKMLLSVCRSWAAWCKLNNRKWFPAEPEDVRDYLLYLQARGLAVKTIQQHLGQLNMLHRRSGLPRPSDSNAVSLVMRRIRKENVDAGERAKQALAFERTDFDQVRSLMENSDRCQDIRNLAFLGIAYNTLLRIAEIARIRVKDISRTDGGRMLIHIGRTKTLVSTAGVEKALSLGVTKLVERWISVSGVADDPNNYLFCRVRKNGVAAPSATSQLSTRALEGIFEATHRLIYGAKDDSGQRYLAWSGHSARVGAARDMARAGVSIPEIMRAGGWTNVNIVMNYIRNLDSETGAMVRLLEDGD

The target of data set [3] is T3, Cre recombinase monomer with W315I mutation.
T3 chain: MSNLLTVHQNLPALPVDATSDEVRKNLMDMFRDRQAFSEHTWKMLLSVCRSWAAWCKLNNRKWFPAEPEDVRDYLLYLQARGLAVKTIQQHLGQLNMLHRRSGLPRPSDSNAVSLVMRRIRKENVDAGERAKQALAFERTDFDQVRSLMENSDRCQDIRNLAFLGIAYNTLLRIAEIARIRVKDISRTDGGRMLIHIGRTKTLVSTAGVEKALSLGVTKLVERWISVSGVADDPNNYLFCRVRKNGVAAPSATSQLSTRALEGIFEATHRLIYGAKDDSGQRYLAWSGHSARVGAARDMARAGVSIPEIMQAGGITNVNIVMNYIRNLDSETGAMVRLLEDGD

Data set [4] addresses T4, Cre recombinase monomer with Y324V mutation.
T4 chain: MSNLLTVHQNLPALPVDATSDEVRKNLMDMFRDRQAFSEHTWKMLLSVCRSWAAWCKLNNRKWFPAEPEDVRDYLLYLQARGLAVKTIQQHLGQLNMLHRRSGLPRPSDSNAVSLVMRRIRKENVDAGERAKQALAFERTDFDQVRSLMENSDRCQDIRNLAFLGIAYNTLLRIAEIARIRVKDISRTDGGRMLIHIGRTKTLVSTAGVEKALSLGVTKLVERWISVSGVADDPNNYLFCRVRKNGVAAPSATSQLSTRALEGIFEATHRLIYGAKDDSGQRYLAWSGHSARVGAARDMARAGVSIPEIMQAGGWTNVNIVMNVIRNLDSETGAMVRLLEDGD

Data set [5] addresses T5, Cre recombinase monomer with W315M mutation.
T5 chain: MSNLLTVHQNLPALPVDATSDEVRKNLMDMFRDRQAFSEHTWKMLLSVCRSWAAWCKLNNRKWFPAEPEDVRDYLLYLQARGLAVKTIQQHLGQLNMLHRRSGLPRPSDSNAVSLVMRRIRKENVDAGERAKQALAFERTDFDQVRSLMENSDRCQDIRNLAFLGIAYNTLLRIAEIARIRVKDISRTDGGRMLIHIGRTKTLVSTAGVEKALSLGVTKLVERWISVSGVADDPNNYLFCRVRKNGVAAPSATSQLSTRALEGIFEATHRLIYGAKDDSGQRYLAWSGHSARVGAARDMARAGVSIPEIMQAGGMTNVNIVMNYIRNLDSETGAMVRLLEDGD

In data set [6] the target is T6, Cre recombinase monomer with Y324F mutation.
T6 chain: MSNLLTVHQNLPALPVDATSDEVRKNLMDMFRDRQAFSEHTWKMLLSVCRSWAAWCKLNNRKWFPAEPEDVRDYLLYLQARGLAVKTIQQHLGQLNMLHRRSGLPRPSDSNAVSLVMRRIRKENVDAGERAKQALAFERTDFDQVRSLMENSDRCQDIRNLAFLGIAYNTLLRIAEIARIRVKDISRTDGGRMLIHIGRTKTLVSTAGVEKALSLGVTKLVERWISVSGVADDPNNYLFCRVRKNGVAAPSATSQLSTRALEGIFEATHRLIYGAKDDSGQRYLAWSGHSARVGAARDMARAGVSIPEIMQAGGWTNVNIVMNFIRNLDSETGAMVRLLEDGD

B1: Cre recombinase monomer with K201L mutation (protein)
chain: MSNLLTVHQNLPALPVDATSDEVRKNLMDMFRDRQAFSEHTWKMLLSVCRSWAAWCKLNNRKWFPAEPEDVRDYLLYLQARGLAVKTIQQHLGQLNMLHRRSGLPRPSDSNAVSLVMRRIRKENVDAGERAKQALAFERTDFDQVRSLMENSDRCQDIRNLAFLGIAYNTLLRIAEIARIRVKDISRTDGGRMLIHIGRTLTLVSTAGVEKALSLGVTKLVERWISVSGVADDPNNYLFCRVRKNGVAAPSATSQLSTRALEGIFEATHRLIYGAKDDSGQRYLAWSGHSARVGAARDMARAGVSIPEIMQAGGWTNVNIVMNYIRNLDSETGAMVRLLEDGD
On to B1, for which the “Median dimer activity (recombination on loxP)” value (shortened to “Median dimer activity”) turned out to be 25% in data set [1] and 92% in data set [2].

B2: Cre recombinase monomer with R292M mutation (protein)
chain: MSNLLTVHQNLPALPVDATSDEVRKNLMDMFRDRQAFSEHTWKMLLSVCRSWAAWCKLNNRKWFPAEPEDVRDYLLYLQARGLAVKTIQQHLGQLNMLHRRSGLPRPSDSNAVSLVMRRIRKENVDAGERAKQALAFERTDFDQVRSLMENSDRCQDIRNLAFLGIAYNTLLRIAEIARIRVKDISRTDGGRMLIHIGRTKTLVSTAGVEKALSLGVTKLVERWISVSGVADDPNNYLFCRVRKNGVAAPSATSQLSTRALEGIFEATHRLIYGAKDDSGQRYLAWSGHSAMVGAARDMARAGVSIPEIMQAGGWTNVNIVMNYIRNLDSETGAMVRLLEDGD
On to B2, for which the entries for the “Median dimer activity” value in data set [3] and in data set [2] were 42% and 96%, respectively.

B3: Cre recombinase monomer with K201Y mutation (protein)
chain: MSNLLTVHQNLPALPVDATSDEVRKNLMDMFRDRQAFSEHTWKMLLSVCRSWAAWCKLNNRKWFPAEPEDVRDYLLYLQARGLAVKTIQQHLGQLNMLHRRSGLPRPSDSNAVSLVMRRIRKENVDAGERAKQALAFERTDFDQVRSLMENSDRCQDIRNLAFLGIAYNTLLRIAEIARIRVKDISRTDGGRMLIHIGRTYTLVSTAGVEKALSLGVTKLVERWISVSGVADDPNNYLFCRVRKNGVAAPSATSQLSTRALEGIFEATHRLIYGAKDDSGQRYLAWSGHSARVGAARDMARAGVSIPEIMQAGGWTNVNIVMNYIRNLDSETGAMVRLLEDGD
Turning to B3, the “Median dimer activity” value is on record as 26% in data set [4] and 90% in data set [2].

B4: Cre recombinase monomer with W315Q mutation (protein)
chain: MSNLLTVHQNLPALPVDATSDEVRKNLMDMFRDRQAFSEHTWKMLLSVCRSWAAWCKLNNRKWFPAEPEDVRDYLLYLQARGLAVKTIQQHLGQLNMLHRRSGLPRPSDSNAVSLVMRRIRKENVDAGERAKQALAFERTDFDQVRSLMENSDRCQDIRNLAFLGIAYNTLLRIAEIARIRVKDISRTDGGRMLIHIGRTKTLVSTAGVEKALSLGVTKLVERWISVSGVADDPNNYLFCRVRKNGVAAPSATSQLSTRALEGIFEATHRLIYGAKDDSGQRYLAWSGHSARVGAARDMARAGVSIPEIMQAGGQTNVNIVMNYIRNLDSETGAMVRLLEDGD
For B4, the “Median dimer activity” value in data set [4] was determined as 97%.

B5: Cre recombinase monomer with H289K mutation (protein)
chain: MSNLLTVHQNLPALPVDATSDEVRKNLMDMFRDRQAFSEHTWKMLLSVCRSWAAWCKLNNRKWFPAEPEDVRDYLLYLQARGLAVKTIQQHLGQLNMLHRRSGLPRPSDSNAVSLVMRRIRKENVDAGERAKQALAFERTDFDQVRSLMENSDRCQDIRNLAFLGIAYNTLLRIAEIARIRVKDISRTDGGRMLIHIGRTKTLVSTAGVEKALSLGVTKLVERWISVSGVADDPNNYLFCRVRKNGVAAPSATSQLSTRALEGIFEATHRLIYGAKDDSGQRYLAWSGKSARVGAARDMARAGVSIPEIMQAGGWTNVNIVMNYIRNLDSETGAMVRLLEDGD
B5: the “Median dimer activity” value in data set [5] is 74%; in data set [2], 95%.

B6: Cre recombinase monomer with K201V mutation (protein)
chain: MSNLLTVHQNLPALPVDATSDEVRKNLMDMFRDRQAFSEHTWKMLLSVCRSWAAWCKLNNRKWFPAEPEDVRDYLLYLQARGLAVKTIQQHLGQLNMLHRRSGLPRPSDSNAVSLVMRRIRKENVDAGERAKQALAFERTDFDQVRSLMENSDRCQDIRNLAFLGIAYNTLLRIAEIARIRVKDISRTDGGRMLIHIGRTVTLVSTAGVEKALSLGVTKLVERWISVSGVADDPNNYLFCRVRKNGVAAPSATSQLSTRALEGIFEATHRLIYGAKDDSGQRYLAWSGHSARVGAARDMARAGVSIPEIMQAGGWTNVNIVMNYIRNLDSETGAMVRLLEDGD
Turning to B6, the “Median dimer activity” value in data set [6] turned out to be 48%; in data set [5], 64%; in data set [2] it was 84%.

B7: Cre recombinase monomer with R173P mutation (protein)
chain: MSNLLTVHQNLPALPVDATSDEVRKNLMDMFRDRQAFSEHTWKMLLSVCRSWAAWCKLNNRKWFPAEPEDVRDYLLYLQARGLAVKTIQQHLGQLNMLHRRSGLPRPSDSNAVSLVMRRIRKENVDAGERAKQALAFERTDFDQVRSLMENSDRCQDIRNLAFLGIAYNTLLPIAEIARIRVKDISRTDGGRMLIHIGRTKTLVSTAGVEKALSLGVTKLVERWISVSGVADDPNNYLFCRVRKNGVAAPSATSQLSTRALEGIFEATHRLIYGAKDDSGQRYLAWSGHSARVGAARDMARAGVSIPEIMQAGGWTNVNIVMNYIRNLDSETGAMVRLLEDGD
B7: the results for the “Median dimer activity” value in data set [1] and in data set [2] were 47% and 94%, respectively.

B8: Cre recombinase monomer with K201W mutation (protein)
chain: MSNLLTVHQNLPALPVDATSDEVRKNLMDMFRDRQAFSEHTWKMLLSVCRSWAAWCKLNNRKWFPAEPEDVRDYLLYLQARGLAVKTIQQHLGQLNMLHRRSGLPRPSDSNAVSLVMRRIRKENVDAGERAKQALAFERTDFDQVRSLMENSDRCQDIRNLAFLGIAYNTLLRIAEIARIRVKDISRTDGGRMLIHIGRTWTLVSTAGVEKALSLGVTKLVERWISVSGVADDPNNYLFCRVRKNGVAAPSATSQLSTRALEGIFEATHRLIYGAKDDSGQRYLAWSGHSARVGAARDMARAGVSIPEIMQAGGWTNVNIVMNYIRNLDSETGAMVRLLEDGD
For B8, the “Median dimer activity” value in data set [5] is 49%; in data set [1], 68%; in data set [2], 95%.
